The results in this text go back to paper PMC5415106.

The target in experiment [1] is Mcm2-7 complex with a PKA tag at the N-terminus of Mcm2 [modified: 32P-phosphate on the PKA tag; 32P-phosphate on the PKA tag] [budding yeast]. Briefly: GST pull-down, phosphorimaging. Conditions: 10 pmoles GST-Dpb11, read off a plot.
Experiment [2] has as its target GST-Dpb11-wild-type (budding yeast) (UniProt P47027). The experiment in a line: pull-down; GST-Dpb11 pull-down of CDK-phosphorylated RPA with single-stranded DNA substituted for bubble-shaped DNA; data not shown.
Experiment [3] addresses GST-Dpb11-m1,2,3,5,ΔC (budding yeast) (UniProt P47027). Briefly: pull-down; as the GST pull-down without DNA, but in the presence of 10 pmol bubble-shaped DNA; 10 pmol GST-Dpb11, 32P-labelled RPA; 25°C 1 h, glutathione Sepharose.
Experiment [4] deals with GST-Dpb11-wild-type (budding yeast) (UniProt P47027). The experiment is described as above.
Experiment [5] has as its target GST-Dpb11-m1,2,3,5,ΔC (budding yeast) (UniProt P47027). The experiment in a line: pull-down; 10 pmol GST-tagged Dpb11 with 32P-labelled protein, no DNA; GST-binding buffer (40 mM Tris-HCl pH 7.5, 100 mM NaCl, 0.1 mM EDTA, 10% glycerol, 0.1% Triton X-100, 1 mM DTT, 0.1 mg/ml BSA), 25°C 1 h; glutathione Sepharose, two washes; SDS-PAGE and phosphorimaging.
In experiment [6] the target is GST-Dpb11-wild-type (budding yeast) (UniProt P47027). The experiment is described as above.

Chain of GST-Dpb11-wild-type (budding yeast) (P47027 whole entry): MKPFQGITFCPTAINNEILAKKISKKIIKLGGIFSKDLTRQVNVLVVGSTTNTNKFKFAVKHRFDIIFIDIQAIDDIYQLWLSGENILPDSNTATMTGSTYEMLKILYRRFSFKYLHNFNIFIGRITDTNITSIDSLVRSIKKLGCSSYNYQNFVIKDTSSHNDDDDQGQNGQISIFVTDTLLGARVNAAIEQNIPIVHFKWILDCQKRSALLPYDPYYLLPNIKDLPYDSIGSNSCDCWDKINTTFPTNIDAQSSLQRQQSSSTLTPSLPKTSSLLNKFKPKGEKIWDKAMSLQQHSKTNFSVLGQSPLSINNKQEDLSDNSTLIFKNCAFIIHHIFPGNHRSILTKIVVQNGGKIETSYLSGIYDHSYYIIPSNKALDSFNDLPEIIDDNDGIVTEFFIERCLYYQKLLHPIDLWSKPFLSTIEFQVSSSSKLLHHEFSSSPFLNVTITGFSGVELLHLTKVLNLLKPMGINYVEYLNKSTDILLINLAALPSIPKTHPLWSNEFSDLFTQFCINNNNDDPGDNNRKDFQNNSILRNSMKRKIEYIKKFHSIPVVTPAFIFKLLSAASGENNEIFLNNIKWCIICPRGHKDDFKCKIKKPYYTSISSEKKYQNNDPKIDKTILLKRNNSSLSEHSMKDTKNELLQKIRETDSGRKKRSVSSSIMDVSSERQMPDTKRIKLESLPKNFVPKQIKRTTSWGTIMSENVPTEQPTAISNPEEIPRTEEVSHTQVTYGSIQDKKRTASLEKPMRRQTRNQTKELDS
Chain of GST-Dpb11-m1,2,3,5,ΔC (budding yeast) (P47027 1-615 K463E/K469E/R538E/K549E): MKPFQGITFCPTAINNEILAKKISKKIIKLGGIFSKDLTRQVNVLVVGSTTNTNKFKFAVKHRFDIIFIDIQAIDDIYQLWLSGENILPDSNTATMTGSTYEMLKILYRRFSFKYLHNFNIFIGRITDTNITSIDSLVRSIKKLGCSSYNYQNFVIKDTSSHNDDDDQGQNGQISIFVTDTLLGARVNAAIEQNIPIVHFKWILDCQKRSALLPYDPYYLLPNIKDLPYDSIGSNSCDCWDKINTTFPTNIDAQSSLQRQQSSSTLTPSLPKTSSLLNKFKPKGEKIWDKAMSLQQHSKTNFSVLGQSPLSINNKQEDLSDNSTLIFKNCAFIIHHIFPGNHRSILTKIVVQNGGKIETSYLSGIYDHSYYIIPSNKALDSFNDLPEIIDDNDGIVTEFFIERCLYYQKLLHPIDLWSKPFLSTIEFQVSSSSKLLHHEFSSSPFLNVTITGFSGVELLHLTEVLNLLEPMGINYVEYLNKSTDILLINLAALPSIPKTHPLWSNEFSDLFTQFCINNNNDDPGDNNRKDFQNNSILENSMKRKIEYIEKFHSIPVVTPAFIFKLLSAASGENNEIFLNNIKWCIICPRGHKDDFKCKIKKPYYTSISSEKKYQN

As for “GST-Dpb11-wild-type mutant K463E; K469E; R538E; K549E [budding yeast] / Mcm2-7 complex with a PKA tag at the N-terminus of Mcm2 [modified: 32P-phosphate on the PKA tag; 32P-phosphate on the PKA tag] [budding yeast] chain 1 K463E, chain 1 K469E, chain 1 R538E, chain 1 K549E”, the response in experiment [1] (1 pmole Mcm2-7 input, parent: 0.26) was 0.25 pmol; in experiment [1] (3 pmoles Mcm2-7 input, parent: 0.55), 0.55 pmol; in experiment [1] (10 pmoles Mcm2-7 input, parent: 1.3), 1.3 pmol.

In the case of “CDK-phosphorylated RPA (PKA-tagged on Rfa1) (from UniProt P22336 1-621) (complex)”, the percent pulled down in experiment [2] came out at 50%; in experiment [3], 15%; in experiment [4], 50%; in experiment [5], 15%; in experiment [6], 15%.

On to “PKA-RPA (not phosphorylated by CDK) (from UniProt P22336 1-621) (complex)”, for which the percent pulled down in experiment [4] and in experiment [6] was 15% each time.
